# Experimental data reported in the DeepSol protein solubility set.
# Experiment: soluble on expression in E. coli; label from the status in PepcDB or PDB records
row,Sequence,soluble on expression in E. coli
1,MSLSEYLGNKEAKQQMLKTIIKDLHQGKDFNQVKADFQNLIKDIDASEIANMEQALIGEGMNPEEITKLCDVHAAVFRDALEENEKPNLILGHPMYTIKHENEEIKKALEELDNYFSSNQMDAFKDRLSFFRDNLDRHYSKKENILFPYLERHNITGPPSVMWSVDDEIRDMGKILLTRVKEGDAGAIKTAYETMKNKISEMIFKEENILTPMLLETLTEEEWAEIKQEDEEFGVVFSKPHGNFWQPKAVTTKNISFEPTGEALSLDTGFLTLEQINTILTNIPIDITFVDKDDTVRYFSQGRERIFVRTKSIIGRKVQNCHPPDSVHMVEKILSDFKHGKHSTAEFWLELAEKFIHIRYFALRDEQGHYVGTMEVSQDVTGIRSLEGERRLLQYEDEGHHHHHH,soluble
2,MGSDKIHHHHHHMSDKKYNVDEGEIAKFSRIADKWWDKSGEFKTLHDINPLRLDYIDGHADLCGKRVLDVGCGGGILAESMARRGAAFVKGIDMAEQSLETARLHAALNNVADIEYECIRVEDLAEAEPHSFDVVTCMEMMEHVPDPAAIVRACAKLVKPDGMVFFSTINKNPKSYLHLIVAAEYLLKFVPKGTHDWKKFIVPAELARMCRQAGLDVADTKGMTYHVLSQTYALCDSTDVNYMFACRPAF,not soluble
3,MGSDKIHHHHHHMKLITVSGPPSSGKTSLIIKTVESLKAQNIKVGIVKFDCLYTDDDILYEKAGILVKKGLSGSVCPDHFFASNIEEVVQWGKTNNLDLLITESAGLCNRCSPYLKDIKAVCVIDNLSGINTPKKIGPMLKLADIVVITKGDIVSQAEREVFASRVQTVNPKAAIIHINGLTGQGTYEFGSLIMDKNEEIDTVIERKLRFPLPSAVCSYCLGETRIGNNYQLGNIRKINFEEQ,not soluble
4,MGSDKIHHHHHHMSKNIKTPTNQKVLTNVAVVRMKKTGKRFEIACYKNKVVNWRNKSEKDIDEVLQTHTVFSNVSKGQLSKKEELIAAFGIEDQLEIYSRQRRLASVGKRASGGFRSIAERGSFFLLKNVSQLIASMVVNPETKRPVPPSVIDKALQEMHFSLKPNRSSKQQALDAIPKLRETLKIERAKMKIRVAIPTKEAKSVHTKLKTLFSDVEVDDWQDGSLEMVGLIEPGSFRALDDLVRNETKGHGRLEILSLKDVVEGELQIS,not soluble
5,MPAFRMPPSTKVEYTSFGTKLSGAMKKIGLLSDTHGYIDEKYRIHFADCDEIWHAGDIGSVTVADYLSGLAPLRAVYGNIDGQDIRLQYPEVLRFCVEEVKVFMTHIGGYPGRYEPRIYRMLVQNPPRLFVCGHSHILKAMYDKKLDMLHLNPGAAGKYGFHAVRTLMRFVIDGRDIRDLQVIELADR,not soluble
6,MAHHHHHHMGTLEAQTQGPGSMLKSVGVILVLSSPSGCGKTTVANKLLEKQKNNIVKSVSVTTRAARKGEKEGKDYYFVDREEFLRLCSNGEIIEHAEVFGNFYGVPRKNLEDNVDKGVSTLLVIDWQGAFKFMEMMREHVVSIFIMPPSMEELRRRLCGRRADDSEVVEARLKGAAFEISHCEAYDYVIVNEDIEETADRISNILRAEQMKTCRQVGLRELLESRFPIED,soluble
7,MGSDKIHHHHHHMKIDFHTHIYPDHVAVRTIAAVRQRAGIEAHTDGTLKGLKRSMTAAGIDISVVAAVATRPEQVSSIHCWLGGIRQPGIETMATTHPSNPLKSEQIKSLKRRGFKGFKLHPDYQHFFVDDFRMYPFYEAAAAEGMFILFHAGMDRGLPYPVHATPKRLAAVHEAVPRLCMIAAHLGGEEAYEETVAHLLGKDLYLDTSFVLRKMPRLFLERIFREHPPDKLLFASDSPWTDQREELNFLLQLPFLSVQDQEKICFSNAARLLGREA,not soluble
8,GPGSMSNIKKVQTEADRLLKKVNEGLDAYDELHEKLANAPNASAKERLEGDLKRELKKLQRHREAMKSFMQNDDYKEKMKMQVSRKKIEERMETFRAIEREMKTKAFSNEGLASAALERADSATEQWLKDAIEEGRKKIELLEYEVQKANNGRVRRGKQQKSEYQIRLENLQTHFFKWESLLRMVNNEELDTDEVDDLQEPIQKVLEDDVDLDVMEDMSIYDSFDIPEPKAKPVVPFDVSDYEDKKVQSPKTTAKAKTPTSTVQAKPSPFITSPKETAASPPAAKAASSTPVPSSMQQPALAQAPQQQLLPPTANSPADDDIGEEEPVPEWMDDDMDTANDDTFGDAAMSGGFTIGSLAEMASATNKVTQDWEKSQKPVGSLEPKTVKVTDPVHGAPEEKRKPTPPVAAPTPNAWERRAAEQQSRQKVQQQQQKQAPEAASPVAPLGPVAAAAEASAPEAVTTSLINPVAATSPSTPAGSANTDPIQPFPPIPGAAPGSKFTPKKIHELLDMSLGNLPHTLDVQRQRPYEPPNAIDAIPYFPQEVLPVLSNKDVYHQMDLDTLFFIFYYHQKSYQQYFAAKELKARSYRYHTKQQRWYQRLERPQTTTETEERGSYTFFDFEDKWDHDRIDDFLFEYKYLENELH,soluble
9,GAKQLSTARKFKMITGKDLFQQQKAMDTELKKEDGEITDLMEFVQYGLYLALFQDNIVKAKSDFSDFRSSFEFDTDGKGLKELVELWQKEI,soluble
10,MGSSHHHHHHSSGLVPRGSHMEELQKSIGHKPEPTDEEWELIKTVTEAHVATNAQGSHWKQKRKFLPEDIGQAPIVNAPEGGKVDLEAFSHFTKIITPAITRVVDFAKKLPMFCELPCEDQIILLKGCCMEIMSLRAAVRYDPESETLTLNGEMAVTRGQLKNGGLGVVSDAIFDLGMSLSSFNLDDTEVALLQAVLLMSSDRPGLACVERIEKYQDSFLLAFEHYINYRKHHVTHFWPKLLMKVTDLRMIGACHASRFLHMKVECPTELFPPLFLEVFED,soluble
11,MGSDKIHHHHHHMNIQDLRYFHELVNLKSYTKTAEKFGVSQPTITAAVKRLENRFGGTFLIRDQPHKSIIITRLGVQFDEHVQSILNEINIVEEEIKQNQNASIPFGLPPIIGRNYFPKIVSQLFAKGLLHRLNVIENGSYDLYHLLLEGYINFSMLGLTKVNVEPGIKLEVVKSYPMCIVVSKTHPLATKKAISFKEIANENFIGLSSDYIHTKALDRMLKKSKINLNTIYRSPDVTVVKNIVAQNLGISYLTTLSITENDDVISIPLLDKDQPKFILAAATRENHIMTDAEEEFWEILTQISLRRQVLTSTLPS,not soluble
12,MGSDKIHHHHHHMHLTKTWLAQLPLTDIQQVQPVSGGDINAAFQIITRHHQYFLKVQPHNDVTFFDHEVAGLRLLGAVTKTPRVIASGTIATDGYLLLDWLATGTGSQSALGAAVAKVHHQHHAQFGLDHDFTAGKLPKINHWQTDWATFYTQQRLDVLVNLAKEHHLWSETREMHYHRLRQQLLQDSHMHTVKPSLLHGDLWSGNYLFDTTGTPVLIDPDVFYGDREMDLAMTTIFGGFDTDFYQAYQAAYPVAPGMQDRLPSYQLYYLLAHLNLFGETYGPAVDRILMQY,not soluble
13,SIHSMDKPIESKEGNVSVGKFKLSDSSINNPEEIISVPSSTTEIEKVEMKPGRGEGLNPELLPASVSELLIPSPFQPQIPDGNNSSVEFHPSKVVLIGTAHVSEKSVNEVRSAIRNLKPDIVAVELCRARYDSLKGNVPETNQVPIKEILTEGKVYYYLVHWLLAYVQKKIGEDMGVKPGSEMISAIEEAEASGAKIALIDRDIQVTLQRFWGRMKFTEKIKMLGSLIGGLIGIGKGAEIDIDQITQQDVVTALVSELREFAPTAAETLIDERDAYLAGSILRTAAGGNKTIVAVIGAGHKPGVINYLENPKSLPPLNSLMQIPKKR,not soluble
14,MLQTLSTHLSSTSTSTTTPLLLLSKPFLSPSAKSQLSHSKPFNFPRTLKPISYYKPPMANILSKLGFGTRSPDPSTMDPTIPQGPDDDLPAPGQQFAQFGAGCFWGVELAFQRVPGVTKTEVGYTQGLLHNPTYEDVCTGTTNHNEVVRVQYDPKECSFDTLIDVLWARHDPTTLNRQGNDVGTQYRSGIYYYTPEQEKAAKESLERQQKLLNRKIVTEILPAKKFYRAEEYHQQYLAKGGRFGFMQSAEKGCNDPIRCYG,soluble
15,MAHHHHHHMTDASKYKKLTPIDHVLLRPEMYVGSIETQPTPMYIFDPEKGRMVWETMRVNQGLLKIVDEILLNAADNINNSKGSVRQTYINIHISDTGEITVENDGAGLPIVRSREHKMYIPEMVFGHLLTSSNYNNDSTSTTAGRHGYGAKLTNILSTKFSVVCRTDGREFHMSWTDHMRMATAPRVNRVDPKEKNVTRVKFMPDYAHFGFPSASISLDMKRVLHKRVMDLAAMFSKIEVRLNNVPFGFRTFTDYAGLYSLPGLDGSMPPEPFVYTSPNGSVAYVPQLTQSPKRIVSVVNGVVTYNGGTHCNAAMDILDACLDSLSKNFKKNGKVVDTNRVQRHFTVLVFLVQAQPKFDSQSKARLVSTVTMPRVPKNTLEKYLERMPFLEAHVNSMDDQLTNELNKEIGAGRRLSSKTLISSITKLVDATSSRPDGRNIRTLIITEGDSAKALALNSLSSEQKKYCGVFPLRGKLLNVRNKNLKRLKTCKELQDLFLSLGLELGKEYRSPAELRYQRLLVMTDQDADGSHIKGLVINAFESLWPKLLQNNPGYISLFSTPIVKIKVSGKSKEAIAFHSFRDFHRWQRAHPSARYTAKYYKGLGTSTTAEGKEYFADMEKNVMQLTVDARDHQLLDSVFDAAEVEWRKEWMTKANAFQGEVDIDRSKKTLTIPEFVHKEMVHFALVGNARAIPHCVDGLKPSQRKILWAMLRRHNSEASKVAQLSGYISEASAFHHGEASLQETIVKMAQNFTGGNNINLLVPEGQFGSRQQLGSDHAAPRYIFTKLSRFARLLFPEEDDPLLDYMDEEGTFVEPHHYVPILPMLLCNGAVGIGFGFATTIPSFHPLDVSAAVRAMINGESAKQVVRNLVPWAVGFQGTVRRGPDNEFIAVGKYTAHPNGRFHISEIPWMTSIEAFRLHISSLASADVVQRIADYSGANHIDIDLIVRDGSLTTWAECETDLALAQRIYINGTVFSPAGTLSPIDSDLSPVLQWHYDRRLDLYKRRRTRKIGLMEMDLARLQSTRKFVEHFRQGQIDFLNATDDTLHKTCVKLGLVRVDESFDYILKKPITFFTRTSTEKLQADIAKTQAQIEELKRTTPVKMWLTELDKFDKTFQEYERVLINSIQKEQRSSSITGGVELPALRQPLLLLEASVKGATAYRVHACQYEKPPPSKRRPGESFGGARSSDSAVRGVGKRLVGSRAVFKKKKPMGRKNNVKVSLSTRVAQFAGAQLGRLLPHILV,not soluble
16,MGSDKIHHHHHHMSKIFAQDTDCSFLIEQAVKAPSGHNTQPWTFRIKETGIDILPDFTKTLPVVDPDNRELFVSLGCATENLCVAAAHKGYETMVSIAENGTIHIELTKQDSDTPSPLFPHISVRQTNRSVYDGNTIPVNDIVALGEKSDMEPCVGAHFFKNGTREFDAISEMVCEGNSIQMRDKKFKEELQQWMRYNKKHQDATRDGLSYAVFGAPNLSRFIAKAIITRLINEKSQNRNDRRKIASSSHFVLFTTSNNTVVQWIKLGRALEHILLKATGMGISHAYMNQPNEVQGLSGKMAEILGIEDEYPTVLIRLGYGSKMPYSLRRSVQSCIIPNSFD,not soluble
17,MGSDKIHHHHHHLETSPSSSVSGNELLGTATNALVSLNGVYRAMYTAGVSNSSNTHQCFGITAYNLVADVMGEDCIMNGQGSGWFWYDCVYNVKSRYTSTGWRSYDMWNGYYTWISNVNYILAEEETMSGSETEKNYVLGQAYAVRAYSYFMLAQMFSRTYKGHESEPCVPLYTEPTDIATEGKGRATIEEVYQQITSDLDKAITMLGNSGKRKHISHINEAVASGIKARVALVMEDWQTALDAANAAISKSGCSVGTGTAVTGGMNDATANNVMWAAEIIADQSGMYAGFFTHMDADQGKYGASARKQINKLLYAKLGTNDVRKKWWNPQDENNEKNGYQQEKFKFKDYAKWTGDYIFMRIEEMFLTAAEASCRLNDDKGARLMLNSLMQKRDEDYTCKKTGTALGKLTSDETGSLLEEIIIQRRIELWGEFGRIYDIRRLKQGFRRTADMGWPSSALIAGTDTEDPESYAWVLTIPQTEFDGNPNMDPSKDQNPIGDHK,not soluble
